# Data published in publication PMC10379010, “Short Peptides of Innate Immunity Protein Tag7 (PGLYRP1) Selectively Induce Inhibition or Activation of Tumor Cell Death via TNF Receptor” (International Journal of Molecular Sciences, 2023).
# Target: Hsp70 (recombinant) (UniProt P0DMV8)
# Experiment: MST; sTNFR1 or Hsp70 labeled with Alexa Fluor 633 or 488 (200 nM), 20 min in the dark at room temperature with 16 concentrations of each compound; Monolith NT 115, IR laser power 10%; apparent Kd; triplicate
row,Binder,Kd [nM]
1,HRDVQRT [peptide 17.1A],222
2,RSNYVLKG [peptide 17.1B],3.15
3,Tag7 protein (PGLYRP1) (natural protein) QETEDPACCSPIVPRNEWKALASECAQHLSLPLRYVVVSHTAGSSCNTPASCQQQARNVQHYHMKTLGWCDVGYNFLIGEDGLVYEGRGWNFTGAHSGHLWNPMSIGISFMGNYMDRVPTPQAIRAAQGLLACGVAQGALRSNYVLKGHRDVQRTLSPGNQLYHLIQNWPHYRSP,1.73
